Assay results published in patent US20080072349A1 (PIONEER HI BRED INTERNATIONAL, published 2008).

Legend:
Test in all cases: cell-based or functional assay
[1] = molecular target: T1, purified deactivated Arabidopsis Rubisco (Ribulose-1,5-bisphosphate carboxylase/oxygenase) (Arabidopsis, UniProt O03042 3-479; P10795 55-180)
[2] = molecular target: T1, purified deactivated Arabidopsis …; remark: listed apart in the source
[3] = molecular target: T1, purified deactivated Arabidopsis …; remark: listed apart in the source

| Binder | Activation of deactivated Rubisco assay, T.S 45° C./25° C. [1] [%] | Activation of deactivated Rubisco assay, T.S 45 min at 40° C./15 min at 25° C. [1] [%] | Rubisco activation under catalytic conditions assay, T.S 40° C./25° C. [1] [%] | Thermostability (%) [2] [%] | activation state of Rubisco at 40° C. relative to reactions at 25° C. [3] [%] |
| --- | --- | --- | --- | --- | --- |
| wild type Rubisco Activase (Arabidopsis, short form RCA1) (enzyme) MVKEDKQTDGDRWRGLAYDTSDDQQDITRGKGMVDSVFQAPMGTGTHHAVLSSYEYVSQGLRQYNLDNMMDGFYIAPAFMDKLVVHITKNFLTLPNIKVPLILGIWGGKGQGKSFQCELVMAKMGINPIMMSAGELESGNAGEPAKLIRQRYREAADLIKKGKMCCLFINDLDAGAGRMGGTTQYTVNNQMVNATLMNIADNPTNVQLPGMYNKEENARVPIICTGNDFSTLYAPLIRDGRMEKFYWAPTREDRIGVCKGIFRTDKIKDEDIVTLVDQFPGQSIDFFGALRARVYDDEVRKFVESLGVEKIGKRLVNSREGPPVFEQPEMTYEKLMEYGNMLVMEQENVKRVQLAETYLSQAALGDANADAIGRGTFYGKTEEKEPSKLE | 50 | 32 | 67 | 66 | 70 |
| Rubisco Activase derived polypeptide 214A4 (enzyme) MVKEDKQTDGDRWRGLAYDTSDDQQDITRGKGMVDSVFQAPTGTGTHHAVLSSYEYVSQGLRQYNLDNMMDGFYIAPAFMDKLVVHITKNFLTLPNIKVPLILGIWGGKGQGKSFQCELVMAKMGINPIMMSAGELESGNAGEPAKLIRQRYREAADLIKKGKMCCLFINDLDAGAGRMGGTTQYTVNNQMVNATLMNIADNPTNVQLPGMYNKEENARVPIICTGNDFSTLYAPLIRDGRMEKFYWAPTREDRIGVCKGIFRTDKIKDEDIVRLVDQFPGQSIDFFGALRARVYDDEVRKFVESLGVEKIGKRLVNSREGPPVFEQPEMTYEKLMEYGNMLVMEQENVKRVQLAETYLSQAALGDANADAIGRGTFYGKTEEKEPSKLE | 58 | 65 | 74 | 92 |  |
| Rubisco Activase derived polypeptide 301H3 (enzyme) MVKEDKQTDGDRWRGLAYDTSDDQQDITRGKGMVDSVFQAPMGTGTHHAVLSSYEYVSQGLRQYNLDNMMDGFYIAPAFMDKLVVHITKNFLTLPNIKVPLILGIWGGKGQGKSFQCELVMAKMGINPIMMSAGELESGNAGEPAKLIRQRYREAADLIKKGKMCCLFINDLDAGAGRMGGTTQYTVNNQMVNATLMNIADNPTNVQLPGMYNKEENARVPIICTGNDFSTLYAPLIRDGRMEKFYWAPTREDRIGICKGIFRTDKIKDEDIVRLVDQFPGQSIDFFGALRARVYDDEVRKFVESLGVENIGKRLVNSREGPPVFEQPEMTYEKLMEYGNMLVMEQENVKRVQLAETYLSQAALGDANADAIGRGTFYGKTEEKEPSKLE | 89 | 75 | 78 | 89 |  |
| Rubisco Activase derived polypeptide 126H4 (enzyme) MVKEDKQTDGDRWRGLAYDTSDDQQDITRGKGMVDSVFQAPMGTGTHHAVLSSYEYVSQGLRQYNLDNMMDGFYIAPAFMDKLVVHITKNFLTLPNIKVPLILGIWGGKGQGKSFQCELVMAKMGINPIRMSAGELESGNAGEPAKLIRQRYREAADLIKKGKMCCLFINDLDAGAGRMGGTTQYTVNNQMVNATLMNIADNPTNVQLPGMYNKEENARVPIICTGNDFSTLYAPLIRDGRMEKFYWAPTREDRIGVCKGIFRTDKIKDEDIVTLVDQFPGQSIDFFGALRARVYDDEVRKFVESLGVEKIGKRLVNSREGPPVFEQPEMTYEKLMEYGNMLVMEQENVKRVQLAETYLSQAALGDANADAIGRGTFYGKTEEKEPSKLE |  |  |  | 97 |  |
| Rubisco Activase derived polypeptide 301C7 (enzyme) MVKEDKQTDGDRWRGLAYDTSDDQQDITRGKGMVDSVFQAPMGTGTHHAVLSSYEYVSQGLRQYNLDNMMDGFYIAPAFMDKLVVHITKNFLTLPNIKVPLILGIWGGKGQGKSFQCELVMAKMGINPIMMSAGELESGNAGEPAKLIRQRYREAADLIKKGKMCCLLINDLDAGAGRMGGTTQYTVNNQMVNATLMNIADNPTNVQLPGMYNKEENARVPIICTGNDFSTLYAPLIRDGRMEKFYWAPTREDRIGICKGIFRTDKIKDEDIVTLVDQFPGQSIDFFGALRARVYDDEVRKFVESLGVENIGKRLVNSREGPPVFEQPEMTYEKLMEYGNMLVMEQENVKRVQLAETYLSQAALGDANADAIGRGTFYGKTEEKEPSKLE | 84 | 92 | 83 | 98 |  |

Continued, values first:

| Activation of deactivated Rubisco assay, T.S 45° C./25° C. [1] [%] | Activation of deactivated Rubisco assay, T.S 45 min at 40° C./15 min at 25° C. [1] [%] | Rubisco activation under catalytic conditions assay, T.S 40° C./25° C. [1] [%] | Thermostability (%) [2] [%] | activation state of Rubisco at 40° C. relative to reactions at 25° C. [3] [%] | Binder |
| --- | --- | --- | --- | --- | --- |
| 52 | 54 | 77 | 82 |  | Rubisco Activase derived polypeptide 183H12 (enzyme) MVKEDKQTDGDRWRGLAYDTSDDQQDITRGKGMVDSVFQAPMGTGTHHAVLSSYEYVSQGLRQYNLDNMMDGFYIAPAFMDKLVVHITKNFLTLPNIKVPLILGIWGGKGQGKSFQCELVMAKMGINPIMMSAGELESGNAGEPAKLIRQRYREAADLIKKGKMCCLFINDLDAGAGRMGGTTQYTVNNQMVNATLMNIADNPTNVQLPGMYNKEENARVPIICTGNDFSTLYAPLIRDGRMEKFYWAPTREDRIGVCKGIFRTDKIKDEDIVRLVDQFPGQSIDFFGALRARVYDDEVRKFVESLGVEKIGKRLVNSREGPPVFEQPEMTYEKLMEYGNMLVMEQENVKRVQLAETYLSQAALGDANADAIGRGTFYGKTEEKEPSKLE |
|  |  |  | 84 |  | Rubisco Activase derived polypeptide 182B11 (enzyme) MVKEDKQTDGDRWRGLAYDTSDDQQDITRGKGMVDSVFQAPMGTGTHHAVLSSYEYVSQGLRQYNLDNMMDGFYIAPAFMDKLVVHITKNFLTLPNIKVPLILGIWGGKGQGKSFQCELVMAKMGINPIMISAGELESGNAGEPAKLIRQRYREAADLIKKGKMCCLFINDLDAGAGRMGGTTQYTVNNQMVNATLMNIADNPTNVQLPGMYNKEENARVPIICTGNDFSTLYAPLIRDGRMEKFYWAPTREDRIGVCKGIFRTDKIKDEDIVTLVDQFPGQSIDFFGALRARVYDDEVRKFVESLGVEKIGKRLVNSREGPPVFEQPEMTYEKLMEYGNMLVMEQENVKRVQLAETYLSQAALGDANADAIGRGTFYGKTEEKEPSKLE |
|  |  |  | 84 |  | Rubisco Activase derived polypeptide 184B2 (enzyme) MVKEDKQTDGDRWRGLAYDTSDDQQDITRGKGMVDSVFQAPMGTGTHHAVLSSYEYVSQGLRQYNLDNMMDGFYIAPAFMDKLVVHITKNFLTLPNIKVPLILGIWGGKGQGKSFQCELVMAKMGINPIMMSAGELESGNAGEPAKLIRQRYREAADLIKKGKMCCLFINDLDAGAGRMGGTTQYTVNNQMVNATLMNIADNPTNVQLPGMYNKEENARVPIICTGNDFSTLYAPLIRDGRMEKFYWAPTREDRIGVCKGIFRTDKIKDEDIVTLVDQFPGQSIDFFGALRARVYDDEVRKFVESLGVENIGKRLVNSREGPPVFEQPEMTYEKLMEYGNMLVMEQENVKRVQLAETYLSQAALGDANADAIGRGTFYGKTEEKEPSKLE |
| 92 | 88 | 97 | 103 |  | Rubisco Activase derived polypeptide 383A12 (enzyme) MVKEDKQTDGDRWRGLAYDTSDDQQDITRGKGMVDSVFQAPMGTGTHHAVLSSYEYVSQGLRQYNLDNMMDGFYIAPAFMDKLVVHITKNFLTLPNIKVPLILGIWGGKGQGKSFQCELVMAKMGINPIMMSAGELESGNAGEPAKLIRQRYREAADLIKKGKMCCLLINDLDAGAGRMGGTTQYTVNNQMVNATLMNIADNPTNVQLPGMYNKEENARVPIICTGNDFSTLYAPLIRDGRMEKFYWAPTREDRIGICKGIFRTDKIKDEDIVRLVDQFPGQSIDFFGALRARVYDDEVRKFVESLGVENIGKRLVNSREGPPVFEQPEMTYEKLMEYGNMLVMEQENVKRVQLAETYLSQAALGDANADAIGRGTFYGKTEEKEPSKLE |
| 86 | 85 | 93 | 90 |  | Rubisco Activase derived polypeptide 382D8 (enzyme) MVKEDKQTDGDRWRGLAYDTSDDQQDITRGKGMVDSVFQAPMGTGTHHAVLSSYEYVSQGLRQYNLDNMMDGFYIAPAFMDKLVVHITKNFLTLPNIKVPLILGIWGGKGQGKSFQCELVMAKMGINPIMVSAGELESGNAGEPAKLIRQRYREAADLIKKGKMCCLFINDLDAGAGRMGGTTQYTVNNQMVNATLMNIADNPTNVQLPGMYNKEENARVPIICTGNDFSTLYAPLIRDGRMEKFYWAPTREDRIGICKGIFRTDKIKDEDIVTLVDQFPGQSIDFFGALRARVYDDEVRKFVESLGVENIGKRLVNSREGPPVFEQPEMTYEKLMEYGNMLVMEQENVKRVQLAETYLSQAALGDANADAIGRGTFYGKTEEKEPSKLE |
| 63 | 66 | 82 | 88 |  | Rubisco Activase derived polypeptide 079H6 (enzyme) MVKEDKQTDGDRWRGLAYDTSDDQQDITRGKGMVDSVFQAPTGTGTHHAVLSSYEYVSQGLRQYNLDNMMDGFYIAPAFMDKLVVHITKNFLTLPNIKVPLILGIWGGKGQGKSFQCELVMAKMGINPIMISAGELESGNAGEPAKLIRQRYREAADLIKKGKMCCLFINDLDAGAGRMGGTTQYTVNNQMVNATLMNIADNPTNVQLPGMYNKEENARVPIICTGNDFSTLYAPLIRDGRMEKFYWAPTREDRIGVCKGIFRTDKIKDEDIVTLVDQFPGQSIDFFGALRAKVYDDEVRKFVESLGVEKIGKRLVNSREGPPVFEQPEMTYEKLMEYGNMLVMEQENVKRVQLAETYLSQAALGDANADAIGRGTFYGKTEEKEPSKLE |
